± gives the standard deviation of the averaged measurements.
What was measured:
[1] = test system: VchCAST RNA-guided transposition machinery (E. coli BL21(DE3) host, lacZ target); test: relative integration efficiency (T-RL orientation) vs wild-type transposon end (log2 (normalized fold change)); transposon end mutated: left end; higher = more efficient transposition
Experimental: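 Pooled, barcoded VchCAST (Tn6677) mini-transposon donor libraries; each variable transposon-end sequence sits in a fixed pDonor mini-transposon context (10-bp barcode and cargo not included). Left- or right-end libraries were co-transformed with pEffector (TniQ-Cascade, TnsABC, lacZ crRNA, T7, 0.1 mM IPTG) into E. coli BL21(DE3) and grown 18 h at 37 C. T-LR and T-RL junction amplicons were sequenced; output/input barcode fold change was normalised to the mean of four wild-type barcodes and log2-transformed. Two biological replicates; zero-count/undetected variants carry floor values (-10 / -15), censored here. Barcode uncoupling by PCR recombination adds noise.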

[2] = test system: VchCAST RNA-guided transposition machinery (E. coli BL21(DE3) host, lacZ target); test: relative integration efficiency (T-RL orientation) vs wild-type transposon end (log2 (normalized fold change)); transposon end mutated: right end (5 bp flank + 75 bp right end); higher = more efficient transposition
Outline: (§1)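 Pools of 1549 left-end or 1849 right-end barcoded transposon variants were cloned into a pUC57 mini-transposon donor and co-transformed into E. coli BL21(DE3) with a T7-driven effector plasmid carrying a CRISPR array, tniQ-cas8-cas7-cas6 and tnsA-tnsB-tnsC. Plating used 0.1 mM IPTG at 37°C for 18 h, and input plasmids and genomic integration junctions were PCR-amplified for Illumina sequencing, with two biological output replicates and four reference barcodes. Relative integration efficiency is the log-transformed fold change of output over input barcode abundance, normalised to the reference barcodes.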

[3] = test system: VchCAST RNA-guided transposition machinery (E. coli BL21(DE3) host, lacZ target); test: relative integration efficiency (T-LR orientation) vs wild-type transposon end (log2 (normalized fold change)); transposon end mutated: right end (5 bp flank + 75 bp right end); higher = more efficient transposition
Outline: as §1

Sequence | relative integration efficiency (log2) [1] | relative integration efficiency (log2) [2] | relative integration efficiency (log2) [3]
AATGTTGTCAACCATAAAGTGATATTTAATAATTATTTATAATCAGCAACTTAACCACAAAACAACCATATATTGATATCTCACAAAACAACCATAAGTTGATATTTTTGTGAATCGAGTATTTCAGCAAAACTACTGCAGTAAGAAAGTTA | -8.1 ± 1.2 |  | 
AATGTTGTTCAACCATAAAGTGATATTTAATAATTATTTATAATCAGCAACTTAACCACAAAACAACCATATATTGATATCTCACAAAACAACCATAAGTTGATATTTTTGTGAATCGAGTATTTCAGCAAAACTACTGCAGTAAGAAAGTT | -7.77 ± 0.46 |  | 
AATGTTGTTGATGACCAACGCCTGGTCGCGGGGATAATTATTTATAATCAGCAACTTAACCACAAAAACCAACGCGCGGTCGCGAGAACAAAAACCAACGCCCTGTCGCGGGCTGTGAATCGAGTATTTCAGCAAAACTACTGCAGTAAGAA | < -10 |  | 
AATGTTGTTGATGACCAACGCCTGGTCGCGGGGATAATTATTTATAATCAGCAACTTAACCACAAAACAACCATATATTGATATCTCACAAAACAACCATAAGTTGATATTTTTGTGAATCGAGTATTTCAGCAAAACTACTGCAGTAAGAA | -8.86 ± 0.67 |  | 
AATGTTGTTGATGCAAAACGCCCTGTCGCGGGCCGCCGGCGGGCGCCGACTACCAGGCCAACACCCCACCAACGCGCGGTCGCGAGACACCCCACCAACGCCTGGTCGCGGGGGTGTCCGATCTGATTTCAGCAAAACTACTGCAGTAAGAA | < -10 |  | 
AATGTTGTTGATGCAACCATAAAATGATAATTAATAATTATTTATAATCAGCAACTTAACCACAAAATAATTATCATTTTATGGTTGACAAAACAACCATAAAATGATAATTATGTGAATCGAGTATTTCAGCAAAACTACTGCAGTAAGAA | -5.2 ± 1.6 |  | 
AATGTTGTTGATGCAACCATAAAGGTCGCGGGCCGCCGGCGGGCGCCGACTACCAGGCCAACACCCCACCAACGCGCGGTCGCGAGACACCCCACCAACGCCTGGTCGCGGGGGTGTCCGATCTGATTTCAGCAAAACTACTGCAGTAAGAA | < -10 |  | 
AATGTTGTTGATGCAACCATAAAGTGAATAAATATAATTATTTATAATCAGCAACTTAACCACAAAACAACCATATATTGAATAGAGACAAAACAACCATAAGTTGAATAAAATGTGAATCGAGTATTTCAGCAAAACTACTGCAGTAAGAA | -4.14 ± 1.6 |  | 
AATGTTGTTGATGCAACCATAAAGTGAGCGGGCCGCCGGCGGGCGCCGACTACCAGGCCAACACCCCACCAACGCGCGGTCGCGAGACACCCCACCAACGCCTGGTCGCGGGGGTGTCCGATCTGATTTCAGCAAAACTACTGCAGTAAGAA | -8.13 ± 0.57 |  | 
AATGTTGTTGATGCAACCATAAAGTGATATAATTATTTATAATCAGCAACTTAACCACAAAACAACCATATATTGATATCTCACAAAACAACCATAAGTTGATATTTTTGTGAATCGAGTATTTCAGCAAAACTACTGCAGTAAGAAAGTTA | -6.82 ± 0.68 |  | 
AATGTTGTTGATGCAACCATAAAGTGATATTATAATTATTTATAATCAGCAACTTAACCACAAAACAACCATATATTGATATCTCACAAAACAACCATAAGTTGATATTTTTGTGAATCGAGTATTTCAGCAAAACTACTGCAGTAAGAAAG | -5.22 ± 1.1 |  | 
AATGTTGTTGATGCAACCATAAAGTGATATTTAAGAATTATGTCGTTCTAAACAAGAGATATTAGAACAACCATATATTGATATCTCACAAAACAACCATAAGTTGATATTTTTGTGAATCGAGTATTTCAGCAAAACTACTGCAGTAAGAA | -4.29 ± 1.2 |  | 
AATGTTGTTGATGCAACCATAAAGTGATATTTAATAACTTCGTATAGCATACATTATACGAAGTTATCAACCATATATTGATATCTCACAAAACAACCATAAGTTGATATTTTTGTGAATCGAGTATTTCAGCAAAACTACTGCAGTAAGAA | -4.52 ± 0.95 |  | 
AATGTTGTTGATGCAACCATAAAGTGATATTTAATAACTTCGTATAGTATACCTTATACGAAGTTATCAACCATATATTGATATCTCACAAAACAACCATAAGTTGATATTTTTGTGAATCGAGTATTTCAGCAAAACTACTGCAGTAAGAA | -3.19 ± 0.87 |  | 
AATGTTGTTGATGCAACCATAAAGTGATATTTAATAATTACAACCATAAAGTGATATTTAACTTAACCAACCATATATTGATATCTCACAAAACAACCATAAGTTGATATTTTTGTGAATCGAGTATTTCAGCAAAACTACTGCAGTAAGAA | -7.98 ± 1.5 |  | 
AATGTTGTTGATGCAACCATAAAGTGATATTTAATAATTATCAACCATATATTGATATCTCACAAAACAACCATAAGTTGATATTTTTGTGAATCGAGTATTTCAGCAAAACTACTGCAGTAAGAAAGTTACTTCGTGGTATGGGAGGATCA | -7.99 ± 0.76 |  | 
AATGTTGTTGATGCAACCATAAAGTGATATTTAATAATTATGGCGCCGACTACCAGGCCAACACCCCACCAACGCGCGGTCGCGAGACACCCCACCAACGCCTGGTCGCGGGGGTGTCCGATCTGATTTCAGCAAAACTACTGCAGTAAGAA | -6.86 ± 1.3 |  | 

Sequence | relative integration efficiency (log2) [1] | relative integration efficiency (log2) [2] | relative integration efficiency (log2) [3]
AGTAATGTTGATACAACCATAAAATGATAATTACACCCATAAATTGATAATTATCACACCCATAAATTGATATTGCCTCTGATCATAGTCAGACCAACATTGCTACGACCCGTATTCGCACCGACAC |  | -0.121 ± 0.05 | -0.0802 ± 0.26
AGTTTTGTTGATACAACCATAAAATGATAATTACACCCATAAATTGATAATTATCACACCCATAAATTGATATTGCCTCTGATCATAGTCAGACCAACATTGCTACGACCCGTATTCGCACCGACAC |  | 0.00539 ± 0.033 | 0.122 ± 0.29
CAAAATGTAAAAAAAACCATACGTTGATTTTACCACCCATAAATTGATAATTAAAACAACCATACCTTGAAATTGCTTATAAAGTGTACAACACTTGAGAAAGTTTACTACAGGTATGCACCGACAC |  | -4.977 ± 0.011 | -2.89 ± 0.71
CAAAATGTAAAAAAAACCATACGTTGATTTTACGAAACCATACGCTGAAATAAAAACAACCATACCTTGAAATTGCTTATGATCATAGTCAGACCAACATTGCTACGACCCGTATTCGCACCGACAC |  | -6.15 ± 0.21 | -4.98 ± 2.3
CAAAATGTAAAAAAAACCATACGTTGATTTTACGAAACCATACGCTGAAATAAAAACACCCATAAATTGATATTGCTTATAAAGTGTACAACACTTGAGAAAGTTTACTACAGGTATGCACCGACAC |  | -8.17 ± 0.95 | < -10
CAAAATGTAAAAAAAACCATACGTTGATTTTACGAAACCATACGCTGAAATAATCACAACCATACCTTGAAATTGCTTATAAAGTGTACAACACTTGAGAAAGTTTACTACAGGTATGCACCGACAC |  | < -10 | < -10
CAAAATGTAAAAACAACCATAAAATGATAATTAGAAACCATACGCTGAAATAAAAACAACCATACCTTGAAATTGCTTATAAAGTGTACAACACTTGAGAAAGTTTACTACAGGTATGCACCGACAC |  | -0.449 ± 0.47 | 2.48 ± 0.26
CAAAATGTTGATACAACCATAAAATGATAATTACACCCATAAATTGATAATTATCACACCCATAAATTGATATTGCCTCTGATCATAGTCAGACCAACATTGCTACGACCCGTATTCGCACCGACAC |  | -0.331 ± 0.081 | -0.0192 ± 0.23
CAATTTGTTGATACAACCATAAAATGATAATTACACCCATAAATTGATAATTATCACACCCATAAATTGATATTGCCTCTGATCATAGTCAGACCAACATTGCTACGACCCGTATTCGCACCGACAC |  | -0.1076 ± 0.00032 | 0.164 ± 0.0064
CACGGTGTTGATACAACCATAAAATGATAATTACACCCATAAATTGATAATTATCACACCCATAAATTGATATTGCCTCTGATCATAGTCAGACCAACATTGCTACGACCCGTATTCGCACCGACAC |  | -0.141 ± 0.051 | 0.107 ± 0.15
CACGTTGTTGATACAACCATAAAATGATAATTACACCCATAAATTGATAATTATCACACCCATAAATTGATATTGCCTCTGATCATAGTCAGACCAACATTGCTACGACCCGTATTCGCACCGACAC |  | -0.27 ± 0.091 | 0.451 ± 0.3
CGCGCTGTTGATACAACCATAAAATGATAATTACACCCATAAATTGATAATTATCACACCCATAAATTGATATTGCCTCTGATCATAGTCAGACCAACATTGCTACGACCCGTATTCGCACCGACAC |  | 0.101 ± 0.1 | 0.747 ± 0.2
TATAATGTTGATACAACCATAAAATGATAATTACACCCATAAATTGATAATTATCACACCCATAAATTGATATTGCCTCTGATCATAGTCAGACCAACATTGCTACGACCCGTATTCGCACCGACAC |  | -0.277 ± 0.026 | -0.134 ± 0.48
TGATTTGTTGATACAACCATAAAATGATAATTACACCCATAAATTGATAATTATCACACCCATAAATTGATATTGCCTCTGATCATAGTCAGACCAACATTGCTACGACCCGTATTCGCACCGACAC |  | 0.00782 ± 0.012 | 0.163 ± 0.18
TGTAATGTTGATACAACCATAAAATGATAATTACACCCATAAATTGATAATTATCACACCCATAAATTGATATTGCCTCTGATCATAGTCAGACCAACATTGCTACGACCCGTATTCGCACCGACAC |  | -0.138 ± 0.063 | -0.169 ± 0.51
TGTATTGTTGATACAACCATAAAATGATAATTACACCCATAAATTGATAATTATCACACCCATAAATTGATATTGCCTCTGATCATAGTCAGACCAACATTGCTACGACCCGTATTCGCACCGACAC |  | -0.0404 ± 0.0046 | 0.421 ± 0.14

Source: the supplement of paper PMC10201428
